Experimental data: US20180155451A1 (published 2018)

B1: GpH7-A5/GpH7-B3 variant E333_13S/GpL16-k0 (antibody, human IgG1, kappa)
heavy 1: not shown
heavy 2: not shown
light: DIVMTQSPLSLPVTPGEPASISCQASESLVHSNRNTYLHWYLQKPGQSPQLLIYKVSNRFSGVPDRFSGSGSGTDFTLKISRVEAEDVGVYYCSQNTHVPPTFGQGTKVEIERTVAAPSVFIFPPSDEQLKSGTASVVCLLNNFYPREAKVQWKVDNALQSGNSQESVTEQDSKDSTYSLSSTLTLSKADYEKHKVYACEVTHQGLSSPVTKSFNRGEC
notes: heterodimerized; also called He Ab E333_13S
B2: GpH7-A5/GpH7-B3 variant P238_08L/GpL16-k0 (antibody, human IgG1, kappa)
heavy 1: not shown
heavy 2: not shown
light: B1 light
notes: heterodimerized; also called He Ab P238_08L
B3: GpH7-A5/GpH7-B3 variant H268_14T/GpL16-k0 (antibody, human IgG1, kappa)
heavy 1: not shown
heavy 2: not shown
light: B1 light
notes: heterodimerized; also called He Ab H268_14T
B4: GpH7-A5/GpH7-B3 variant L234_10E/GpL16-k0 (antibody, human IgG1, kappa)
heavy 1: not shown
heavy 2: not shown
light: B1 light
notes: heterodimerized; also called He Ab L234_10E; GpH7-A5/GpH7-B16/GpL16-k0
B5: GpH7-A5/GpH7-B3 variant P271_04F/GpL16-k0 (antibody, human IgG1, kappa)
heavy 1: not shown
heavy 2: not shown
light: B1 light
notes: heterodimerized; also called He Ab P271_04F
B6: GpH7-A5/GpH7-B3 variant L234_07I/GpL16-k0 (antibody, human IgG1, kappa)
heavy 1: not shown
heavy 2: not shown
light: B1 light
notes: heterodimerized; also called He Ab L234_07I
B7: GpH7-A5/GpH7-B3 variant L328_10E/GpL16-k0 (antibody, human IgG1, kappa)
heavy 1: not shown
heavy 2: not shown
light: B1 light
notes: heterodimerized; also called He Ab L328_10E
B8: GpH7-A5/GpH7-B3 variant L328_20W/GpL16-k0 (antibody, human IgG1, kappa)
heavy 1: not shown
heavy 2: not shown
light: B1 light
notes: heterodimerized; also called He Ab L328_20W
B9: GpH7-A5/GpH7-B3 variant P238_03V/GpL16-k0 (antibody, human IgG1, kappa)
heavy 1: not shown
heavy 2: not shown
light: B1 light
notes: heterodimerized; also called He Ab P238_03V
B10: GpH7-A5/GpH7-B3 variant K326_18N/GpL16-k0 (antibody, human IgG1, kappa)
heavy 1: not shown
heavy 2: not shown
light: B1 light
notes: heterodimerized; also called He Ab K326_18N
B11: GpH7-A5/GpH7-B3 variant P271_07I/GpL16-k0 (antibody, human IgG1, kappa)
heavy 1: not shown
heavy 2: not shown
light: B1 light
notes: heterodimerized; also called He Ab P271_07I
B12: GpH7-A5/GpH7-B3 variant I336_06M/GpL16-k0 (antibody, human IgG1, kappa)
heavy 1: not shown
heavy 2: not shown
light: B1 light
notes: heterodimerized; also called He Ab I336_06M
B13: GpH7-A5/GpH7-B3 variant H268_07I/GpL16-k0 (antibody, human IgG1, kappa)
heavy 1: not shown
heavy 2: not shown
light: B1 light
notes: heterodimerized; also called He Ab H268_07I
B14: GpH7-A5/GpH7-B3 variant L234_15Y/GpL16-k0 (antibody, human IgG1, kappa)
heavy 1: not shown
heavy 2: not shown
light: B1 light
notes: heterodimerized; also called He Ab L234_15Y; GpH7-A5/GpH7-B3-01-15Y/GpL16-k0
B15: GpH7-A5/GpH7-B3 variant K326_12R/GpL16-k0 (antibody, human IgG1, kappa)
heavy 1: not shown
heavy 2: not shown
light: B1 light
notes: heterodimerized; also called He Ab K326_12R
B16: GpH7-A5/GpH7-B3 variant P271_03V/GpL16-k0 (antibody, human IgG1, kappa)
heavy 1: not shown
heavy 2: not shown
light: B1 light
notes: heterodimerized; also called He Ab P271_03V
B17: GpH7-A5/GpH7-B3 variant G236_20W/GpL16-k0 (antibody, human IgG1, kappa)
heavy 1: not shown
heavy 2: not shown
light: B1 light
notes: heterodimerized; also called He Ab G236_20W; GpH7-A5/GpH7-B3-03-20W/GpL16-k0
B18: GpH7-A5/GpH7-B3 variant K334_10E/GpL16-k0 (antibody, human IgG1, kappa)
heavy 1: not shown
heavy 2: not shown
light: B1 light
notes: heterodimerized; also called He Ab K334_10E
B19: GpH7-A5/GpH7-B3 variant H268_08L/GpL16-k0 (antibody, human IgG1, kappa)
heavy 1: not shown
heavy 2: not shown
light: B1 light
notes: heterodimerized; also called He Ab H268_08L
B20: GpH7-A5/GpH7-B3 variant K326_14T/GpL16-k0 (antibody, human IgG1, kappa)
heavy 1: not shown
heavy 2: not shown
light: B1 light
notes: heterodimerized; also called He Ab K326_14T
B21: GpH7-A5/GpH7-B3 variant P271_13S/GpL16-k0 (antibody, human IgG1, kappa)
heavy 1: not shown
heavy 2: not shown
light: B1 light
notes: heterodimerized; also called He Ab P271_13S
B22: GpH7-A5/GpH7-B3 variant H268_12R/GpL16-k0 (antibody, human IgG1, kappa)
heavy 1: not shown
heavy 2: not shown
light: B1 light
notes: heterodimerized; also called He Ab H268_12R
B23: GpH7-A5/GpH7-B3 variant P271_02A/GpL16-k0 (antibody, human IgG1, kappa)
heavy 1: not shown
heavy 2: not shown
light: B1 light
notes: heterodimerized; also called He Ab P271_02A
B24: GpH7-A5/GpH7-B3 variant I332_12R/GpL16-k0 (antibody, human IgG1, kappa)
heavy 1: not shown
heavy 2: not shown
light: B1 light
notes: heterodimerized; also called He Ab I332_12R
B25: GpH7-A5/GpH7-B3 variant H268_20W/GpL16-k0 (antibody, human IgG1, kappa)
heavy 1: not shown
heavy 2: not shown
light: B1 light
notes: heterodimerized; also called He Ab H268_20W
B26: GpH7-A5/GpH7-B3 variant E333_15Y/GpL16-k0 (antibody, human IgG1, kappa)
heavy 1: not shown
heavy 2: not shown
light: B1 light
notes: heterodimerized; also called He Ab E333_15Y
B27: GpH7-A5/GpH7-B3 variant P271_06M/GpL16-k0 (antibody, human IgG1, kappa)
heavy 1: not shown
heavy 2: not shown
light: B1 light
notes: heterodimerized; also called He Ab P271_06M
B28: GpH7-A5/GpH7-B3 variant L328_14T/GpL16-k0 (antibody, human IgG1, kappa)
heavy 1: not shown
heavy 2: not shown
light: B1 light
notes: heterodimerized; also called He Ab L328_14T
B29: GpH7-A5/GpH7-B3 variant I336_10E/GpL16-k0 (antibody, human IgG1, kappa)
heavy 1: not shown
heavy 2: not shown
light: B1 light
notes: heterodimerized; also called He Ab I336_10E
B30: GpH7-A5/GpH7-B3 variant P238_15Y/GpL16-k0 (antibody, human IgG1, kappa)
heavy 1: not shown
heavy 2: not shown
light: B1 light
notes: heterodimerized; also called He Ab P238_15Y
B31: GpH7-A5/GpH7-B3 variant I336_18N/GpL16-k0 (antibody, human IgG1, kappa)
heavy 1: not shown
heavy 2: not shown
light: B1 light
notes: heterodimerized; also called He Ab I336_18N
B32: GpH7-A5/GpH7-B3 variant P238_10E/GpL16-k0 (antibody, human IgG1, kappa)
heavy 1: not shown
heavy 2: not shown
light: B1 light
notes: heterodimerized; also called He Ab P238_10E
B33: GpH7-A5/GpH7-B3 variant L234_04F/GpL16-k0 (antibody, human IgG1, kappa)
heavy 1: not shown
heavy 2: not shown
light: B1 light
notes: heterodimerized; also called He Ab L234_04F
B34: GpH7-A5/GpH7-B3 variant E333_14T/GpL16-k0 (antibody, human IgG1, kappa)
heavy 1: not shown
heavy 2: not shown
light: B1 light
notes: heterodimerized; also called He Ab E333_14T
B35: GpH7-A5/GpH7-B3 variant P271_11K/GpL16-k0 (antibody, human IgG1, kappa)
heavy 1: not shown
heavy 2: not shown
light: B1 light
notes: heterodimerized; also called He Ab P271_11K
B36: GpH7-A5/GpH7-B3 variant P238_04F/GpL16-k0 (antibody, human IgG1, kappa)
heavy 1: not shown
heavy 2: not shown
light: B1 light
notes: heterodimerized; also called He Ab P238_04F
B37: GpH7-A5/GpH7-B3 variant L328_19Q/GpL16-k0 (antibody, human IgG1, kappa)
heavy 1: not shown
heavy 2: not shown
light: B1 light
notes: heterodimerized; also called He Ab L328_19Q
B38: GpH7-A5/GpH7-B3 variant K334_12R/GpL16-k0 (antibody, human IgG1, kappa)
heavy 1: not shown
heavy 2: not shown
light: B1 light
notes: heterodimerized; also called He Ab K334_12R
B39: GpH7-A5/GpH7-B3 variant G236_02A/GpL16-k0 (antibody, human IgG1, kappa)
heavy 1: not shown
heavy 2: not shown
light: B1 light
notes: heterodimerized; also called He Ab G236_02A
B40: GpH7-A5/GpH7-B3 variant L328_03V/GpL16-k0 (antibody, human IgG1, kappa)
heavy 1: not shown
heavy 2: not shown
light: B1 light
notes: heterodimerized; also called He Ab L328_03V
B41: GpH7-A5/GpH7-B3 variant I336_01G/GpL16-k0 (antibody, human IgG1, kappa)
heavy 1: not shown
heavy 2: not shown
light: B1 light
notes: heterodimerized; also called He Ab I336_01G
B42: GpH7-A5/GpH7-B3 variant H268_02A/GpL16-k0 (antibody, human IgG1, kappa)
heavy 1: not shown
heavy 2: not shown
light: B1 light
notes: heterodimerized; also called He Ab H268_02A
B43: GpH7-A5/GpH7-B3 variant H268_05P/GpL16-k0 (antibody, human IgG1, kappa)
heavy 1: not shown
heavy 2: not shown
light: B1 light
notes: heterodimerized; also called He Ab H268_05P
B44: GpH7-A5/GpH7-B3 variant L234_06M/GpL16-k0 (antibody, human IgG1, kappa)
heavy 1: not shown
heavy 2: not shown
light: B1 light
notes: heterodimerized; also called He Ab L234_06M
B45: GpH7-A5/GpH7-B3 variant I336_03V/GpL16-k0 (antibody, human IgG1, kappa)
heavy 1: not shown
heavy 2: not shown
light: B1 light
notes: heterodimerized; also called He Ab I336_03V
B46: GpH7-A5/GpH7-B3 variant K334_20W/GpL16-k0 (antibody, human IgG1, kappa)
heavy 1: not shown
heavy 2: not shown
light: B1 light
notes: heterodimerized; also called He Ab K334_20W
B47: GpH7-A5/GpH7-B3 variant P238_06M/GpL16-k0 (antibody, human IgG1, kappa)
heavy 1: not shown
heavy 2: not shown
light: B1 light
notes: heterodimerized; also called He Ab P238_06M
B48: GpH7-A5/GpH7-B3 variant K334_06M/GpL16-k0 (antibody, human IgG1, kappa)
heavy 1: not shown
heavy 2: not shown
light: B1 light
notes: heterodimerized; also called He Ab K334_06M
B49: GpH7-A5/GpH7-B3 variant I336_04F/GpL16-k0 (antibody, human IgG1, kappa)
heavy 1: not shown
heavy 2: not shown
light: B1 light
notes: heterodimerized; also called He Ab I336_04F
B50: GpH7-A5/GpH7-B3 variant K326_16H/GpL16-k0 (antibody, human IgG1, kappa)
heavy 1: not shown
heavy 2: not shown
light: B1 light
notes: heterodimerized; also called He Ab K326_16H
B51: GpH7-A5/GpH7-B3 variant P271_20W/GpL16-k0 (antibody, human IgG1, kappa)
heavy 1: not shown
heavy 2: not shown
light: B1 light
notes: heterodimerized; also called He Ab P271_20W
B52: GpH7-A5/GpH7-B3 variant P271_12R/GpL16-k0 (antibody, human IgG1, kappa)
heavy 1: not shown
heavy 2: not shown
light: B1 light
notes: heterodimerized; also called He Ab P271_12R
B53: GpH7-A5/GpH7-B3 variant I336_02A/GpL16-k0 (antibody, human IgG1, kappa)
heavy 1: not shown
heavy 2: not shown
light: B1 light
notes: heterodimerized; also called He Ab I336_02A
B54: GpH7-A5/GpH7-B3 variant E333_16H/GpL16-k0 (antibody, human IgG1, kappa)
heavy 1: not shown
heavy 2: not shown
light: B1 light
notes: heterodimerized; also called He Ab E333_16H
B55: GpH7-A5/GpH7-B3 variant L234_03V/GpL16-k0 (antibody, human IgG1, kappa)
heavy 1: not shown
heavy 2: not shown
light: B1 light
notes: heterodimerized; also called He Ab L234_03V
B56: GpH7-A5/GpH7-B3 variant K326_15Y/GpL16-k0 (antibody, human IgG1, kappa)
heavy 1: not shown
heavy 2: not shown
light: B1 light
notes: heterodimerized; also called He Ab K326_15Y

target: T1, FcγRIa (human, UniProt P12314 16-292); assay: SPR; vs GpH7-A5/GpH7-B3/GpL16-k0=100
T1 construct: extracellular domain; also called FcgRI; CD64
T1 sequence (P12314 16-292): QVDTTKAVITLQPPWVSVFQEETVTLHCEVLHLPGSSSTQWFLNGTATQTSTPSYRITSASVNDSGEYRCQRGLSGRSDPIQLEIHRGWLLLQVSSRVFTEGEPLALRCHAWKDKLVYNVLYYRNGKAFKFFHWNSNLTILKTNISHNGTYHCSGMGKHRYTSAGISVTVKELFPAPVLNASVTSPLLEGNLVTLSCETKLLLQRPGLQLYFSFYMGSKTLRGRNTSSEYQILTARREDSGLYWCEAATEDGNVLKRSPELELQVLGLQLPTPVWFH

Binder | He/Con_1a
B1 | 103 % of control
B2 | 101 % of control
B3 | 112 % of control
B4 | 100 % of control
B5 | 102 % of control
B6 | 103 % of control
B7 | 101 % of control
B8 | 103 % of control
B9 | 100 % of control
B10 | 105 % of control
B11 | 102 % of control
B12 | 108 % of control
B13 | 108 % of control
B14 | 100 % of control
B15 | 100 % of control
B16 | 102 % of control
B17 | 105 % of control
B18 | 110 % of control
B19 | 107 % of control

Binder | He/Con_1a
B20 | 104 % of control
B21 | 102 % of control
B22 | 106 % of control
B23 | 104 % of control
B24 | 100 % of control
B25 | 107 % of control
B26 | 101 % of control
B27 | 102 % of control
B28 | 100 % of control
B29 | 108 % of control
B30 | 101 % of control
B31 | 108 % of control
B32 | 102 % of control
B33 | 101 % of control
B34 | 102 % of control
B35 | 103 % of control
B36 | 101 % of control
B37 | 101 % of control
B38 | 104 % of control

Binder | He/Con_1a
B39 | 100 % of control
B40 | 101 % of control
B41 | 109 % of control
B42 | 109 % of control
B43 | 109 % of control
B44 | 104 % of control
B45 | 105 % of control
B46 | 106 % of control
B47 | 102 % of control
B48 | 105 % of control
B49 | 106 % of control
B50 | 103 % of control
B51 | 103 % of control
B52 | 102 % of control
B53 | 106 % of control
B54 | 101 % of control
B55 | 104 % of control
B56 | 106 % of control
